Biological target: T1, SARS-CoV-2 Nucleocapsid protein, His Tag (SARS-CoV-2, UniProt P0DTC9 1-419)
T1 construct: Bought
Assay: ELISA, His-tagged viral protein captured on nickel plates (6.25-50 pmol/mL)

B1: Purified C-reactive protein (CRP) (other)
chain: QTDMSRKAFVFPKESDTSYVSLKAPLTKPLKAFTVCLHFYTELSSTRGYSIFSYATKRQDNEILIFWSKDIGYSFTVGGSEILFEVPEVTVAPVHICTSWESASGIVEFWVDGKPRVRKSLKKGYTVGAEASIILGQEQDSFGGNFEGSQSLVGDIGNVNMWDFVLSPDEINTIYLGGPFSPNVLNWRALKYEVQGEVFTKPQLWP
  binding result: no binding (tested: CRP 3 µg/mL (25 nM))

Reference: patent US20240123029A1 (HUMANITAS MIRASOLE S P A, published 2024)
